Where a chain is given by its changes, count along the chain named. Names may count otherwise.
T1: Human CD3eg linker (human)
T1 construct: single-chain construct; also called recombinant human CD3
T1 chain: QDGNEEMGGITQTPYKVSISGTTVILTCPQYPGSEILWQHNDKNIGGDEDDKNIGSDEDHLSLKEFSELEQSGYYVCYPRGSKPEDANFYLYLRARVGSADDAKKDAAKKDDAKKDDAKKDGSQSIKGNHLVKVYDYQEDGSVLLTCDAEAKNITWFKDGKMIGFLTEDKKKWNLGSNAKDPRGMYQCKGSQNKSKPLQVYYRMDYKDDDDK

B1: dBBDu183H A102H/dBBDu072L (antibody, name in Kabat numbering, V domains shown)
VH: QVQLVESGGGLVQPGRSLRLSCAASGFTFSNAWMHWVRQAPGKGLEWVAQIKDKGNAYAAYYAPSVKGRFTISRDDSKNSIYLQMNSLKTEDTAVYYCHYVHYASASTVLPAFGVDHWGQGTTVTVSS
VL: DIVMTQSPLSLPVTPGEPASISCQASQELVHMNRNTYLHWYQQKPGQAPRLLIYKVSNRFPGVPDRFSGSGSGTDFTLKISRVEAEDVGVYYCAQGTSVPFTFGQGTKLEIK
B2: dBBDu183H A102K/dBBDu072L (antibody, name in Kabat numbering, V domains shown)
VH: B1 VH with H117K
VL: B1 VL
B3: dBBDu183H A102N/dBBDu072L (antibody, name in Kabat numbering, V domains shown)
VH: B1 VH with H117N
VL: B1 VL
B4: dBBDu183H A102Q/dBBDu072L (antibody, name in Kabat numbering, V domains shown)
VH: B1 VH with H117Q
VL: B1 VL
B5: dBBDu183H A102R/dBBDu072L (antibody, name in Kabat numbering, V domains shown)
VH: B1 VH with H117R
VL: B1 VL
B6: dBBDu183H A102S/dBBDu072L (antibody, name in Kabat numbering, V domains shown)
VH: B1 VH with H117S
VL: B1 VL
B7: dBBDu183H A102T/dBBDu072L (antibody, name in Kabat numbering, V domains shown)
VH: B1 VH with H117T
VL: B1 VL
B8: dBBDu183H A102V/dBBDu072L (antibody, name in Kabat numbering, V domains shown)
VH: B1 VH with H117V
VL: B1 VL
B9: dBBDu183H A102W/dBBDu072L (antibody, name in Kabat numbering, V domains shown)
VH: B1 VH with H117W
VL: B1 VL
B10: dBBDu183H A102Y/dBBDu072L (antibody, name in Kabat numbering, V domains shown)
VH: B1 VH with H117Y
VL: B1 VL
B11: dBBDu183H D101E/dBBDu072L (antibody, name in Kabat numbering, V domains shown)
VH: B1 VH with D116E, H117A
VL: B1 VL
B12: dBBDu183H D101F/dBBDu072L (antibody, name in Kabat numbering, V domains shown)
VH: B1 VH with D116F, H117A
VL: B1 VL
B13: dBBDu183H D101G/dBBDu072L (antibody, name in Kabat numbering, V domains shown)
VH: B1 VH with D116G, H117A
VL: B1 VL
B14: dBBDu183H D101H/dBBDu072L (antibody, name in Kabat numbering, V domains shown)
VH: B1 VH with D116H, H117A
VL: B1 VL
B15: dBBDu183H D101K/dBBDu072L (antibody, name in Kabat numbering, V domains shown)
VH: B1 VH with D116K, H117A
VL: B1 VL
B16: dBBDu183H D101N/dBBDu072L (antibody, name in Kabat numbering, V domains shown)
VH: B1 VH with D116N, H117A
VL: B1 VL
B17: dBBDu183H D101Q/dBBDu072L (antibody, name in Kabat numbering, V domains shown)
VH: B1 VH with D116Q, H117A
VL: B1 VL
B18: dBBDu183H D101R/dBBDu072L (antibody, name in Kabat numbering, V domains shown)
VH: B1 VH with D116R, H117A
VL: B1 VL

Target: T1, Human CD3eg linker
Assay: SPR, vs unmutated H183/L072

Binder	fold change of affinity
B1	3.6 fold
B2	1.5 fold
B3	1.5 fold
B4	1.3 fold
B5	1 fold
B6	1.9 fold
B7	0.5 fold
B8	1 fold
B9	3.3 fold
B10	2.5 fold
B11	0 fold
B12	2.5 fold
B13	0.4 fold
B14	0.4 fold
B15	0 fold
B16	1.1 fold
B17	0 fold
B18	0 fold
